Experimental findings from patent US20170342161A1 (APROGEN KIC, published 2017) are described below.

Test [1] deals with T1, carbonic anhydrase 12 (CA-XII) as expressed by human tumor cell lines (human, UniProt O43570 25-354).
T1 construct: also called CA12; CA12 antigen
In words: flow cytometry, percent positive cells, HCT116 (colon). Here is the method: (§1) 27B6 and 4B4 monoclonal antibodies were analyzed for binding to various cell lines obtained from KCLB (Korean Cell Line Bank) and SNU (Seoul National University) using flow cytometry. Briefly, various cell lines were obtained from KCLB (Korean Cell Line Bank) and SNU (Seoul National University). At 37° C. under a 5% CO₂ atmosphere, L-132, SW-900, DU145, LNCap, MCF-7, Huh7, and Hs-578T were cultured in Dulbecco's MEM (GIBCO, Invitrogen) supplemented with 10% heat-inactivated fetal bovine serum (FBS; GIBCO, Invitrogen) and A549, NCI-H460, NCI-H417, DLD-1, HCT116, HT-29, SW-480, SW-620, LS174T, PC-3, SNU1, SNU638, SNU719, MKN1, MKN28, MKN45, MKN74, NCI-N87, SK-BR3, MDA-MB231, and MDA-MB453 were cultured in RPMI 1640 (GIBCO, Invitrogen) supplemented with 10% heat-inactivated FBS. […]
(§2) The cultured cancer cell lines were incubated with the 27B6 or the 4B4 monoclonal antibody of the present disclosure at 4° C. for 30 min, washed with PBS, and treated with FITC-conjugated goat anti-mouse IgG (DiNona Inc, Korea) at 4° C. for 15 min. […] Also, titers of the 27B6 and the 4B4 antibody were measured in various solid tumor cell lines.

Test [2] has as its target T1, carbonic anhydrase 12 (CA-XII) as …. In words: flow cytometry (A549 cells, per paragraph 117). Here is the method: (§3) Three days post transfection, the supernatant was taken and added to A549 cells which were then incubated at 4° C. for 30 min. Unbound antibodies were removed by centrifugation, together with 3 ml of PBS, at 1500 rpm for 3 min. The bound antibodies were detected by incubation with a 150-fold dilution of the secondary antibody goat anti-Mouse Ig-FITC (Dinona) at 4° C. for 15 min, followed by washing with 3 ml of PBS in the same manner. Thereafter, the antibody titer to A549 cells was measured using flow cytometry. Subsequently, a stable cell line was established. For this, the medium was exchanged with a PowerCHO medium (LONZA, Switzerland) supplemented with 30 nM MTX (Sigma, USA) and 200 μg/ml G418 (Invitrogen, USA), after which clone selection was started. Concentrations of MTX and G418 in the selection medium were increased with the repetition of clone selection rounds. Each round was set to be three weeks. The final round of clone selection was performed in a PowerCHO medium supplemented with 1000 nM MTX and 400 μg/ml G418. Thereafter, the final cell line was established as a single colony through limiting dilution.

Test [3] shares this target. In words: flow cytometry, percent positive cells, NCI-H460 (lung). Here is the method: as §1, §2
The target is the same in test [4]. The experiment in a line: flow cytometry (A549 cells, per paragraph 138). Here is the method:
as §3, with “to A549 cells, which were” for “to A549 cells which were”, “was measured by flow cytometry.” for “was measured using flow cytometry.”, “1000 nM of MTX and” for “1000 nM MTX and”, “400 μg/ml of G418. Thereafter,” for “400 μg/ml G418. Thereafter,”

T1 sequence (O43570 25-354 limits assumed): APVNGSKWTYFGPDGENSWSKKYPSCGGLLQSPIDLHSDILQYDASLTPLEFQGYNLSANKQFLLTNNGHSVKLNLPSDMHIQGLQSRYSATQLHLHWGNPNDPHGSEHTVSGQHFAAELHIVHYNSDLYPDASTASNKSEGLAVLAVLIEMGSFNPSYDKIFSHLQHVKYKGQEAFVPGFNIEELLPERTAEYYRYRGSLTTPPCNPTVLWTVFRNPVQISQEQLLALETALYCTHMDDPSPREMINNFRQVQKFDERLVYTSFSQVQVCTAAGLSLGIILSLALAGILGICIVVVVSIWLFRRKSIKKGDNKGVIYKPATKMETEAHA

B1: 27B6 monoclonal antibody (antibody, mouse IgG1, V domains shown)
VH: QVQLQQSGPQLVWPGASVKISCNTSGYSFTNYWIHWVKQRPGQGLEWIGMIDPSDSETRLNQKFKDKTTLTVDRSSSTAYMQVSSSTSEDSAVYYCTRGIRGGYYAMDYWGQGTSVTVSS
VL: DIQMTQTTSSLSASLGDRVTISCRASQDISNYLNWYQQKPEGTVKLLIYYTSRLHSGVPSRFSGSGSGTDYSLTISNLEQEDIATYFCQQGDTLPRTFGEGTKLEIR
notes: also called 27B6 Ab; mouse 27B6 antibody
Consider B1, for which the binding result in test [1] is “binds”.

B2: 27B6 chimeric antibody (antibody, V domains shown)
VH: B1 VH
VL: B1 VL
notes: Chimeric antibody: mouse 27B6 variable regions, the rest 'substituted with the Fc of the human antibody'; Produced in CHO DG44 cells; also called chimeric 27B6; 27B6-HuIgFc
In the case of B2, in test [2], the binding result is “binds”.

B3: 4B4 monoclonal antibody (antibody, V domains shown)
VH: EIQLQQSGPELVKPGASVKISCKASGYSYTDYNIYWVRQSQGKSLDWIGYIDPANGDTTYNQKFKGKATLTVDKSSSTAFMHLNSLTSDGSAVYFCARPIYYGVYWYFDVWGAGTTVTVS
VL: DIVMTQAAPSVPVTPGESVSISCRSSKSLLHSNGNTYLYWFLQRPGQSPQLLIYRMSNLASGVPDRFSGSGSGTAFTLRISRVEAEDVGVYYCMQHLEYPFTFGSGTKLEIK
notes: Mouse hybridoma antibody; also called 4B4 Ab; mouse 4B4 antibody
As to B3, in test [3], the binding result is listed as “binds”.

B4: 4B4 chimeric antibody (antibody, V domains shown)
VH: B3 VH
VL: B3 VL
notes: Chimeric antibody: mouse 4B4 variable regions, the rest 'substituted with the Fc of the human antibody'; Produced in CHO DG44 cells; also called chimeric 4B4; 4B4-HuIgFc
In the case of B4, the binding result in test [4] is “binds”.
